Measurements published in the DeepSol protein solubility set.

assay: soluble on expression in E. coli; label from the status in PepcDB or PDB records

Sequence | soluble on expression in E. coli
MVAEVCSMPTASTVKKPFDLRSKMGKWCHHRFPCCRGSGKSNMGTSGDHDDSFMKMLRSKMGKCCRHCFPCCRGSGTSNVGTSGDHENSFMKMLRSKMGKWCCHCFPCCRGSSKSNVGAWGDYDHSAFMEPRYHVRREDLDKLHRAAWWGKVPRKDLIVMLRDTDMNKRDKEKRTALHLASANGNSEVVQLLLDRRCQLNVLDNKKRTALIKAVQCQEDECVLMLLEHGADRNIPDEYGNTALHYAIYNEDKLMAKALLLYGADIESKNKV | not soluble
MDVRPYEGGRFEKIGSEEAHTIETFERRIHGTPHSEPQRQVSSKQYTERRTYGRDENGEIVVKIEKNPSEPVRPASPVRPVTPVGGENELSRHLLQPIQPLHIPRIDIQPANSSRHASPRHKLQYDEVSPRSGSINMLSPRSGHSASSRSGAGSRQSNVSVNSANVPLKKVTKKSRFVSIHDGRPVSPYTETVSFEVAIPFQPDRYSSASARSFSSSPHVSRRPSECAYLMENPLYQD | not soluble
MKNTFVYQAEKPVIKLLQITDPHLFKDESAELLGVNTQASFAQVLKEIQQENNEFDVILATGDLVQDSSDEGYIRFVEMMKPFNKPVFWIPGNHDFQPKMAEFLNQPPMNAAKHLLLGEHWQALLLDSQVYGVPHGQLSQHQLDLLKETLGKNPERYTLVVLHHHLLPTNSAWLDQHNLRNSHELAEVLAPFTNVKAILYGHIHQEVNSEWNGYQVMATPATCIQFKPDCQYFSLDTLQPGWREIELHSDGSIRTEVKRIQQAEFFPNMQEEGY | not soluble
TGLRPSGTVSCPICMDGYSEIVQNGRLIVSTECGHVFCSQCLRDSLKNANTCPTCRKKINHK | soluble
MHCLSDFIPWNQVSVTGDFVGHIQELIRTEVLPYQWEALNDQIAGAEPSHCLDNFRAAAEKKGHIQFHGQPFQDSDIYKWIEAAAYTLAWHPDSDLEAKADQAIELICGAQQPDGYLNTYFILTGAQRWTHLLDGHELYCAGHLMEAAVAYYHATGKDKLLKAAQKLADHIADVFGTSPGKIPGYPGHPEVELALIRLFEATGNIKYQQLAQYFICQRGASPSIFRKEADQFGWDWADSPFQFQFYQAGKPILEQTELEGHAVRALYLCCGIADVAARTQDAALLETCRRLWEDLTQTKLYITGGAGSSVYGEAFTFAYDLPNDTAYAETCAAVAVCFFAQRMMKISPSGAYGDVLEQALYNGVLSGMALDGKSFFYVNPLEVVPEACQKDQRKKHVKPIRQKWFACACCPPNLARLFASIGGYLHFIRAETLYTNLYVTSTSEFTFQGLPIKLHMDSAYPFDEKIHISLSLPRPMEFSYAVRIPAWCADYHVLINGKICAGTLKDGFLYLHRCWRDGDEVELTLSMPVRVVRANSLVRENIGKSAICRGPIVYCMEQTDNGPQLHRNRICGKPSFTISSGEENLKGLPCISCSGEYLLPDGTQLYTSAKESFQPKTLRFIPYFAWCNRSPGEMAVWVRHDTILEHHHHHH | soluble
GSPGISGGGGGIPSGRGELLVSLCYQSTTNTLTVVVLKARHLPKSDVSGLSDPYVKVNLYHAKKRISKKKTHVKKCTPNAVFNELFVFDIPCESLEEISVEFLVLDSERGSRNEVIGRLVLGATAEGSGGGHWKEICDFPRRQIAKWHMLCDG | soluble
MGSDKIHHHHHHMINCIIVEDAPLAVDKLKNFISKVPLLDLAGTFDNGLDAFDFLQSNTIDLLFLDIQMEQFTGLQLLQALHTRPHIIIVSAYGEYAVQGFEYDVTDYLLKPYSFERFLKAVNKVQTEMASNPPAQPLPKDYIFLKTEYRMVRINLCDILYIEGKGAYLHVITDTTRIMTLLSFKEIESLLPAKQFIRIHKSYLIAINKIDNIERNVVKIANMRIPIGKSYLKDFYLRLQ | not soluble
MASISEKMVEALNRQINAEIYSAYLYLSMASYFDSIGLKGFSNWMRVQWQEELMHAMKMFDFVSERGGRVKLYAVEEPPSEWDSPLAAFEHVYEHEVNVTKRIHELVEMAMQEKDFATYNFLQWYVAEQVEEEASALDIVEKLRLIGEDKRALLFLDKELSLRQFTPPAEEEK | soluble
MFEIATTPMATTVVISGDLDLASRDQFLEVAARLTSLRRSLLTIDMCDVRFMDSTGAAFLISLAETGQRRGWLTVLRGSSDAHRFVLDICGATHLFRFDTEHYCHHTASPA | not soluble
MGSDKIHHHHHHMTARWRSANGRPAPTRVEVVSDSLTADDANRMASQGIAMLWQGDFHNARQILNAMDRRIGAGKKETAATPAEKFYRHRQSASHRARILGLLLIPLDPGPVVPLRRAPDIRQAAAGAYGDIGEPSVVSLHELVGAIGAHEWRRNGVYVDALEGRIHPHYGTFFPTRSEYVDLVAAAALPSDTLAFDVGTGTGVLAAVLARRGVRSVVATDNEPRAIACAAENFRNLGVQDRAEAVLTDMFPPGRAPLIVCNPPWIPATPHSSLDSAVYDPGSRMLFRFLNELSDHLEPGGEGWLVLSDLAEHLGLRSRGDLLAAIEAAGLKVVERLDTKPTHPKASDRDDPLFEARTAEVTSLWRLVPR | not soluble
MGSDKIHHHHHHMSKSHAVVHSALADEASQHNNTLSWFDITPADQERVRSLAPIADHVGEEIIADFYAHILRFEDAAQQFADDTQIERVKRGQKKYFQELINAELDESYAEERKRIGGIHERAGITPTLYVGSYAYYLQRLSQSILENGKEDPHKLFGLVLSMMKIAHYDMALALETYVEAREKTIEIHERQMRELPTPVLELREGLLLVPVVGALDSHRARTLTMQLLDGIRDTRSRAVVLDITGAVSIDSSVANHLFQAMTAARLMGAKSILAGISPTVAQELFRIGVDTKTFTTARNLQQGIELAASALEAHSKHSV | not soluble
MAENIPLRVQFKRMKAAEWASSDVVLLEGEIGFETDTGFAKFGDGQNTFSKLKYLTGPKGPKGDTGLQGKTGGTGSRGPAGKPGTTDYDQLQNKPDLGAFAQKEETNSKITKLESSKADKNAVYLKAESNAKLDEKLNLKGGVMTGQLQFKPNSGIKPSSSVGGAINIDMSKSEGAAMVMYTNKDTTDGPLMILRSNKDTFDQSVQFVDYKGTTNAVNIVMRQPTTPNFSSALNITSANEGGSAMQIRGVEKALGTLKITHENPSVDKEYDKNAAALSIDIVKKQKGGKGTAAQGIYINSTSGTTGKLLRIRNLNDDKFYVKPDGGFYAKETSQIDGNLKLKDPIANDHAATKAYVDGEVEKLKALLAAKQM | not soluble
MPYKAKSDLPDNVRNVLPAHAQDIYKEAFNSAWEQYKDKADRRDDASREETAHKVAWAAVKNDYEKGEDDKWHKKK | not soluble
MGSDKIHHHHHHMKVDLCARKQADAQASVGIIQREGGTARAYQCDIANPDSVRDFSVQLLEDSTPVDILVLSAAQWLEGALGEEDTDTDIVSTINSGLTGSILLTKTLLPSLRRSQSADILAMISVCGVPQFHDSIAHPAFFAAKHGLSGFSQNLAHHVAQENIRVTGFYPPDFEVTGFDDYPASGEKMGEHLLNARSIWETMRFVLTQPRSCHINAIHFQGPTRTDIGPY | not soluble
MSKLEFLAFYDELTGLPNKNSLIRWLNLKVSQMDCIDTYLIFLEVRDLEKLNVTYGYDLVDELIIHISKRIKDIAGEGNKAFKIGFDRFAIICKSENISDFIERMLSQLLLPYNVNGNLIRVNFNIGAAQIENSNEAAANLMRRCDLALIKAKEEGLNEYVIFKPSIEIQTLEHHHHHH | soluble
MSCRKSAPDQCSIWQSEIGVFKMFITMNRLLRLQIMIPELFLYNETHQGLNNQNVHAVGAYFDQHDPEGLQQVVPLLNEAAANQDVVVIDSMASLVDLYTMDSRGLHEICDLATPFFQLLAHPRISMEVKLLINRLKGVLLTRDAAILQLIIQVYENIAEGDQEAEEADERVKALLAERFGNDI | not soluble
MDLGEFPAPDPSVLVQNFNISDFNGKWYITSGLNPTFDAFDCQLHEFHTEGDNKLVGNISWRIKTLDSGFFTRSAVQKFVQDPNQPGVLYNHDNEYLHYQDDWYILSSKIENKPEDYIFVYYRGRNDAWDGYGGAVVYTRSSVLPNSIIPELEKAAKSIGRDFSTFIRTDNTCGPEPRSHHHHHH | soluble
MSKLFGNKSQRDLKEVKPFVDKIKVAYGEIERLSDDDLRGRTAILRQKIQDYVKDERAEIDKLKVEVEGKDLDEREEIWAQVDKLEKEILDKMEVVLDEILPEAFAIIKDTARRFAQNETIRVKATDLDRDLAINHDFVSIEGDTAVYQNHWVAGGNEILW | not soluble
MLTRLAVEAAEQARLAAEVEAQRIAAETAEHARVVAEAEAKRVADEQALFAAEAEAHRITAEAAEQARMEAEAQAQRDADEHARVTAEAQALEAGKTLRLPEAGTPQLGAVAGVISVTAGSGLFLDATIQAAIEILAALVGTAVSSTTAVGIGTLLYSPSLGNGELPGRMLDLPARVLMPDLPDALNDVAATGGTVDMPYRIYGDQSKYSVVATQPEGGFSPKVPVRALILDPVANAYTFTTSDTPPITLTFPIAAPENSSTTTVAQPIETPAYTGITLEPIEVKAEPLPATSPLDIRDAIYVYPVNSGLPPVYVVFSSPYEGATTKGEHSGRMYDPDNAGGPTQNLDWTTASVTQNGIDLVKLHTGRFEPSDANAVMIDRLEKILRSELSMTDTDKRFYTHELRELERYRALGVADGVEGEVWNNAHTATLEDYKLKDSSESFYTPEAILEHHHHHH | soluble
MKRKTIDIITLGCSKNLVDSEQLMRQLEEAGYDVTHDSEKPTGEIAVINTCGFIGDAKEESINMILEFAQEKEEGNLEKLFVMGCLSERYLKELAIEIPQVDKFYGKFNWKGLLQDLGKAYHEELHIERTLTTPKHYAYLKISEGCDRKCSYCAIPIITGRHVSRPIEEILDEVRYLVSNGVKEFQVIAQELTYYGVDLYKKQMLPELIERISEIPGVEWIRLHYAYPAHFPEELFRVMRERDNVCKYMDIALQHISDNMLQRMRRHVTKKETYRLIEQFRKEVPGIHLRTTLMVGHPGETEGDFEELKEFVRKVRFDRMGAFTYSEEEGTYAAANYEDSIPQELKQARLDELMAIQQGISTELSASKVGQKMKVIIDRIEGEYYIGRTEFDSPEVDPEVLIRCEGDNLMIGNFYQVQVIDSDEFDLFGEIILEHHHHHH | soluble
MKKALLYRRGGLGDTLLTFPILEILKRRGYETIAVGNTDYFSIAKEVGYADGVYSFIPEEEFDLKVIISFEGNVKPFPEKREWIVKHYLNSLGLGEEFSTKLPIKPVQDSPLKGKVVIHPSSGSKKKNPPLEVFLKLKDFLEERGKEVVFLLGEAEEHLREVLSPHFLSLSPLEIAKHLKTAGFYVGLDSGISHLASYLGVPSFIVYGPTDPLVWRPIGDKVFQISLNLDCSPCFPNVCEERMCLDTEEVLRKTKETLLRYWNSL | not soluble
MSDAFLSSIKNRRTIYALDKQLPVSQEKIVELVKEAVSHSPSAFNSQSSRVVVLFGAEHEQFWNIAKDELKKIVPADAFAATETKLNSFAAGAGTVLFFEDQTVVRQLQEQFALYADNFPVWSEQASGMAQFAVWTALAEHKVGASLQHYNPLVDAQTHKTWNLPESWKLRAQMPFGAIAAPAGEKAFIAESERFKVFGN | not soluble
AHHHHHHGSGETLRIAFIYDVIYPWVKGGVERRLYEIAKRLAEKHEVHIYGYKHWDGKKIQEMNGIFYHGTIKPKKIYHGNRRAILPPIFHSINLLFLLKGQHLDIIDCQATPYFPCYASRVSNSNLVITWHEFWGNYWLKYLGRAGFFGKIIERGLFVLTDNHIAVSLKTKKDLYKAGLRKNIYVVPNGIDFEKIQEIKPSSYTSDIIFVGRLIKEKNVPLLLKALTIIKQDIPDVKAVVVGDGPEREYLEKLSFKLNLQDNVKFLGFLNRYEDVVALMKASKVFAFPSLREGFGIVVIEANASGLPVVTVEHEMNASKDLILEWKNGFIAKVNEKDFAEKILIALEKRKKMKKLSTEIARKYNWNEIVKKLERYYRWIA | soluble
